Measurements published in US20250025549A1 (NOVAVAX, published 2025).

Biological target: T1, human angiotensin-converting enzyme 2 precursor (hACE2), His-tagged (human, UniProt Q9BYF1 18-740)
T1 construct: also called His-tagged human ACE2; histidine-tagged hACE2
Experiment: bio-layer interferometry

T1 sequence (Q9BYF1 18-740 limits assumed): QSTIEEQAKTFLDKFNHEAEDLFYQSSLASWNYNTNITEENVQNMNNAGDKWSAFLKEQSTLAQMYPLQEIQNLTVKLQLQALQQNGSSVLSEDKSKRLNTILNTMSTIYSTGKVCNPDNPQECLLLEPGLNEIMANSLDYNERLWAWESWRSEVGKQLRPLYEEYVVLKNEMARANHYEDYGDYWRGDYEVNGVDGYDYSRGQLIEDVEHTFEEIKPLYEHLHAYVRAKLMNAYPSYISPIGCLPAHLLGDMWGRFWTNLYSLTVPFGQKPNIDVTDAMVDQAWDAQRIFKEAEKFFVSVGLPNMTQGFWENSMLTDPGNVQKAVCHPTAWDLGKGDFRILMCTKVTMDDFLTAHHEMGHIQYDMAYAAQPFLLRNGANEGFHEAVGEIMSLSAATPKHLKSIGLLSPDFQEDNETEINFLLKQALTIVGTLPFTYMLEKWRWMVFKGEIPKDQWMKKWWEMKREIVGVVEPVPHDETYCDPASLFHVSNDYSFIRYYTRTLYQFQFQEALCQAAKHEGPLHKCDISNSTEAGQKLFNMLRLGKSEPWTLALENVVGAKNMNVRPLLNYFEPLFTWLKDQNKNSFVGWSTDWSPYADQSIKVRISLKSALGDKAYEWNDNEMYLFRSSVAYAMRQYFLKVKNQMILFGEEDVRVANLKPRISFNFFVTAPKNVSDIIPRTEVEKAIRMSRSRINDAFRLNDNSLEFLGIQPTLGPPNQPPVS

B1: MERS S protein (other)
chain: YVDVGPDSVKSACIEVDIQQTFFDKTWPRPIDVSKADGIIYPQGRTYSNITITYQGLFPYQGDHGDMYVYSAGHATGTTPQKLFVANYSQDVKQFANGFVVRIGAAANSTGTVIISPSTSATIRKIYPAFMLGSSVGNFSDGKMGRFFNHTLVLLPDGCGTLLRAFYCILEPRSGNHCPAGNSYTSFATYHTPATDCSDGNYNRNASLNSFKEYFNLRNCTFMYTYNITEDEILEWFGITQTAQGVHLFSSRYVDLYGGNMFQFATLPVYDTIKYYSIIPHSIRSIQSDRKAWAAFYVYKLQPLTFLLDFSVDGYIRRAIDCGFNDLSQLHCSYESFDVESGVYSVSSFEAKPSGSVVEQAEGVECDFSPLLSGTPPQVYNFKRLVFTNCNYNLTKLLSLFSVNDFTCSQISPAAIASNCYSSLILDYFSYPLSMKSDLSVSSAGPISQFNYKQSFSNPTCLILATVPHNLTTITKPLKYSYINKCSRFLSDDRTEVPQLVNANQYSPCVSIVPSTVWEDGDYYRKQLSPLEGGGWLVASGSTVAMTEQLQMGFGITVQYGTDTNSVCPKLEFANDTKIASQLGNCVEYSLYGVSGRGVFQNCTAVGVRQQRFVYDAYQNLVGYYSDDGNYYCLRACVSVPVSVIYDKETKTHATLFGSVACEHISSTMSQYSRSTRSMLKRRDSTYGPLQTPVGCVLGLVNSSLFVEDCKLPLGQSLCALPDTPSTLTPRSVRSVPGEMRLASIAFNHPIQVDQLNSSYFKLSIPTNFSFGVTQEYIQTTIQKVTVDCKQYVCNGFQKCEQLLREYGQFCSKINQALHGANLRQDDSVRNLFASVKSSQSSPIIPGFGGDFNLTLLEPVSISTGSRSARSAIEDLLFDKVTIADPGYMQGYDDCMQQGPASARDLICAQYVAGYKVLPPLMDVNMEAAYTSSLLGSIAGVGWTAGLSSFAAIPFAQSIFYRLNGVGITQQVLSENQKLIANKFNQALGAMQTGFTTTNEAFHKVQDAVNNNAQALSKLASELSNTFGAISASIGDIIQRLDVLEQDAQIDRLINGRLTTLNAFVAQQLVRSESAALSAQLAKDKVNECVKAQSKRSGFCGQGTHIVSFVVNAPNGLYFMHVGYYPSNHIEVVSAYGLCDAANPTNCIAPVNGYFIKTNNTRIVDEWSYTGSSFYAPEPITSLNTKYVAPQVTYQNISTNLPPPLLGNSTGIDFQDELDEFFKNVSTSIPNFGSLTQINTTLLDLTYEMLSLQQVVKALNESYIDLKELGNYTYYNKWPWYIWLGFIAGLVALALCVFFILCCTGCGTNCMGKLKCNRCCDRYEEYDLEPHKVHVH
notes: also called MERS-CoV spike protein
B1: no binding.
